# T1: 2-trans-octenoyl-ACP, P0A6A8
# T1 chain: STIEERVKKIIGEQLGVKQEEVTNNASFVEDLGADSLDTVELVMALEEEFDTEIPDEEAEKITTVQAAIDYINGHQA
# B1: Rv0636-Rv0637 heterodimer (protein)
# chain 1: HHHHHHMALREFSSVKVGDQLPEKTYPLTRQDLVNYAGVSGDLNPIHWDDEIAKVVGLDTAIAHGMLTMGIGGGYVTSWVGDPGAVTEYNVRFTAVVPVPNDGKGAELVFNGRVKSVDPESKSVTIALTATTGGKKIFGRAIASAKLA
# chain 2: MALKTDIRGMIWRYPDYFIVGREQCREFARAVKCDHPAFFSEEAAADLGYDALVAPLTFVTILAKYVQLDFFRHVDVGMETMQIVQVDQRFVFHKPVLAGDKLWARMDIHSVDERFGADIVVTRNLCTNDDGELVMEAYTTLMGQQGDGSARLKWDKESGQVIRTA
# B2: Rv0636-Rv0637: recombinant heterodimeric (3R)-hydroxyacyl-ACP dehydratase of the M. tuberculosis H37Rv FAS-II system, Rv0636 plus Rv0637 (protein)
# chain 1: B1 chain 1
# chain 2: B1 chain 2
# B3: Rv0636 homodimer: recombinant Rv0636 protein of M. tuberculosis H37Rv (SEQ ID No. 2) carrying the hydratase 2 motif, tested alone (protein, listed as Mycobacterium tuberculosis)
# chain: MALREFSSVKVGDQLPEKTYPLTRQDLVNYAGVSGDLNPIHWDDEIAKVVGLDTAIAHGMLTMGIGGGYVTSWVGDPGAVTEYNVRFTAVVPVPNDGKGAELVFNGRVKSVDPESKSVTIALTATTGGKKIFGRAIASAKLA
# modifications: homodimer
# Legend:
# 2-trans-octenoyl-ACP [1] = molecular target: 2-trans-octenoyl-ACP (UniProt P0A6A8)
# [2] = molecular target: T1, 2-trans-octenoyl-ACP, P0A6A8
# [3] = Hydratase activity monitored by spectrophotometry at 263 nm, control experiments of the isomerase test; assay type: biochemical; settings: 2-trans-decenoyl-CoA 10 μM; Rv0635-Rv0636 80 nM or Rv0636-Rv0637 543 nM; 100 mM sodium phosphate pH 7.0, 25° C.
# Procedure: (§1) These reactions are monitored by spectrophotometry at 263 nm by means of a thermostated Uvikon 923 spectrophotometer (Kontron Instruments). They are carried out in a quartz cuvette (optical path of 1 cm) in a total volume of 700 μl at 25° C. The reaction mixture contains 100 mM sodium phosphate buffer, pH 7.0, and varying concentrations of substrates. After equilibration of the base line on the reaction mixture in the absence of the enzyme, the reactions are triggered by the addition of enzyme, and then monitored for 1.5 to 5 min. The reaction rate corresponds to the initial rate measured by plotting the tangent of the curve OD=f(time) at time zero.
# The conversions corresponding to the hydration reaction and to the dehydration reaction are associated, respectively, with a decrease and with an increase in the absorbance at 263 nm, linked to the double bond conjugated to the carbonyl. A variation in OD263 of 0.67 corresponds to a variation in concentration of 100 μM.
# (§2) The ability of the proteins to catalyze the isomerization reaction was studied in the presence of 3-cis-decenoyl-CoA (10 μM) and of Rv0635-Rv0636 enzyme (80 nM) or Rv0636-Rv0637 enzyme (543 nM). […] The reactions were monitored at 263 nm, where the increase in absorbance results from the conversion of the 3-cis-decenoyl-CoA into 2-trans-decenoyl-CoA.
# [4] = Isomerase activity, conversion of 3-cis-enoyl into 2-trans-enoyl, monitored at 263 nm; assay type: biochemical; settings: 3-cis-decenoyl-CoA 10 μM; Rv0635-Rv0636 80 nM or Rv0636-Rv0637 543 nM
# Procedure: as §1
# As in certain FAS-II systems described, the dehydration step can be catalyzed either by a (3R)-hydroxyacyl-ACP dehydratase, or by a (3R)-hydroxyacyl-ACP dehydratase/isomerase of FabA type which, in vivo, converts the 2-trans-enoyls, formed by the dehydration step, into 3-cis-enoyls. […]
# as §2
# 2-trans-octenoyl-ACP [5] = assay: Study of the ACP-dependency, hydration of the ACP derivative at 263 nm; assay type: biochemical, E. coli; settings: 2-trans-octenoyl-ACP 2 μM; Rv0635-Rv0636 80 nM, Rv0636-Rv0637 311 nM, Rv0636 alone 311 nM
# [6] = Study of the ACP-dependency, hydration of the CoA derivative at 263 nm; assay type: biochemical; settings: 2-trans-octenoyl-CoA 2 μM; compared with control experiment (no enzyme)
# Procedure: as §1
# The activities of the enzymes Rv0635-Rv0636 (80 nM), Rv0636-Rv0637 (311 nM) or Rv0636 alone (311 nM) were compared in the presence of 2-trans-octenoyl-ACP (2 μM) or of 2-trans-octenoyl-CoA (2 μM).
# [7] = Substrate specificity, 2-trans-enoyl-CoA of various chain lengths; assay type: biochemical
# Procedure: as §1
# The substrate specificity was studied in the presence of 2-trans-enoyl-CoA of various chain lengths (C4-C20). The initial rates were measured and compared at a very low substrate concentration in order to reduce as much as possible the solubility problems encountered with these amphiphilic compounds. […]
# The tests were carried out in 100 mM sodium phosphate buffer, pH 7.0, in the presence of 3-hydroxybutyryl-CoA (25 or 75 μM) or of 2-trans-octenoyl-CoA (25 μM) or of crotonoyl-CoA (25 μM), and of enzyme (Rv0635-Rv0636: 80 nM; Rv0636-Rv0637: 543 nM). […] After addition of the enzyme, the reactions were monitored by spectrophotometry at 263 nM for 1.5 min. […]
molecule,measurement,setting,value
Rv0635-Rv0636 heterodimer,"specific activity (hydration followed at 263 nm), 2 µM substrate, 80 nM enzyme",2-trans-octenoyl-ACP [1],0.28 µmol/min/mg
B1,"specific activity (hydration followed at 263 nm), 2 µM substrate",[2],0.047 µmol/min/mg of protein
B2,specific activity,[3],0.02 μmol/min/mg of protein
same,isomerase activity,[4],do not exhibit any isomerase activity
same,specific activity in the presence of 2-trans-octenoyl-ACP,2-trans-octenoyl-ACP [5],0.047 µmol/min/mg
same,activity in the presence of 2-trans-octenoyl-CoA,[6],not significant
same,activity on C12-C20 trans-2-enoyl-CoAs at low substrate concentration,[7]; 2.5 μM substrate,no activity could be detected
same,activity in the presence of short-chain (C4-C8) substrates,"[7]; 2.5 or 25 μM 2-trans-enoyl-CoA, Rv0635-Rv0636 80 nM, Rv0636-Rv0637 543 nM",inactive
B3,specific activity in the presence of 2-trans-octenoyl-ACP,2-trans-octenoyl-ACP [5],no activity
